In patent US20030130484A1, “Inhibitors and disassemblers of fibrillogenesis” (priority 2001, published 2003):
Like-named read-outs stand apart in the source and are kept apart here.

What was measured:
[1] = molecular target: human Aβ1-40 peptide (human); assay: cell-based or functional assay
[2] = molecular target: human Aβ1-40 peptide (human); assay: cell-based or functional assay; remark: listed apart in the source
Aβ16-22m = assay: size exclusion chromatography, self-association

Binder	Inhibition IC50 (thioflavin T assay) (inhibitor:Aβ1-40 ratio) [1]	Inhibition ICmax [1]	Inhibition IC50 (thioflavin T fluorescence) (inhibitor to Aβ40 molar ratio) [2]	Inhibition ICmax [2]	IC50 of inhibition of fibrillogenesis (thioflavin fluorescence) (inhibitor:Aβ40 ratio) [2]	Inhibition of Fibrillogenesis IC50 (thioflavin fluorescence) (inhibitor:Aβ40 molar ratio) [2]	Inhibition of Fibrillogenesis ICmax [2]	Inhibition of Fibrilogenesis IC50 (µM) [2]	Inhibition of Fibrilogenesis ICmax (%) [2]	ratio giving complete elimination of thioflavin fluorescence (inhibitor:Aβ40 ratio) [2]	percent oligomer (% oligomer (at 0.1 mg/ml)) (Aβ16-22m)	percent oligomer (% oligomer (at 6 mg/ml)) (Aβ16-22m)	molar excess giving complete elimination of thioflavin fluorescence (fold molar excess) [2]
KLVFF (modifications not checked) [Aβ16-20e]	3.7	100%											
KLVFF (modifications not checked) [Aβ16-20]	9.7	100%	5.3	89%									
ELVFFAK (modifications not checked) [Aβ16-22mR]					9	7.8	100%	7.8 µM	100%	50			
KLVFFAE (modifications not checked) [Aβ16-22m]					4	4.2	100%	4.2 µM	100%		1 to 91	1 to 91	30
KLVFF (modifications not checked) [Aβ16-20m]	6.9		6.5	100%				0.4 µM	100%				
